Columns and labels:
Assay in all cases: holdup assay
Parameters in all cases: key: below the threshold = too weak to quantify, mostly under pKd 3.1 to 4
Details in all cases: plain residues with an end cap or a label only (N-terminal biotin on a linker: ado-ado)
APBA2_2, Q99767 = biological target: T1, APBA2_2, Q99767
T1 sequence (Q99767 654-744, limits assumed, looked up): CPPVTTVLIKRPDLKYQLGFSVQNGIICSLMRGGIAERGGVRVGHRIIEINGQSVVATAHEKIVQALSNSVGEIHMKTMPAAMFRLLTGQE

ARHGAP21, Q5T5U3 = biological target: T2, ARHGAP21, Q5T5U3
T2 sequence (Q5T5U3 45-169, limits assumed, looked up): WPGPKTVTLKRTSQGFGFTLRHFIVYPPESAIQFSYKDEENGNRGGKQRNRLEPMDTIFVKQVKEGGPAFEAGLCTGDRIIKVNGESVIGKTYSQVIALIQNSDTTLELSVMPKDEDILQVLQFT

DLG1_2, Q12959 = biological target: DLG1_2, Q12959
Sequence of DLG1_2, Q12959 (Q12959 314-412): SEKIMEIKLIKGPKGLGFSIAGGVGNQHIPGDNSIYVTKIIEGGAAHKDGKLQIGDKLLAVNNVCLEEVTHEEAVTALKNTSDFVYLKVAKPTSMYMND

DLG2_3, Q15700 = biological target: DLG2_3, Q15700
DLG4_1, P78352 = biological target: DLG4_1, P78352
Sequence of DLG4_1, P78352 (P78352 62-152): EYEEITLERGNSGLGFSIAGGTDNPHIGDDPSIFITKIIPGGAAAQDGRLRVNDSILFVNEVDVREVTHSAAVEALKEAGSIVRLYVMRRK

DLG4_2, P78352 = biological target: DLG4_2, P78352
Sequence of DLG4_2, P78352 (P78352 155-259): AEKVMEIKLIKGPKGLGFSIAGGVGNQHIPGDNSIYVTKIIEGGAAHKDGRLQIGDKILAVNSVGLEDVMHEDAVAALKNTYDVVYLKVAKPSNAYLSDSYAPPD

DLG4_3, P78352 = biological target: DLG4_3, P78352
Sequence of DLG4_3, P78352 (P78352 306-403): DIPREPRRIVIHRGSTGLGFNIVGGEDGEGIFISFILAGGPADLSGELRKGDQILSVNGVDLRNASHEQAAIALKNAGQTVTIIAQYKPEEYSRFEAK

FRMPD3, Q5JV73 = biological target: FRMPD3, Q5JV73
Sequence of FRMPD3, Q5JV73 (Q5JV73 12-100): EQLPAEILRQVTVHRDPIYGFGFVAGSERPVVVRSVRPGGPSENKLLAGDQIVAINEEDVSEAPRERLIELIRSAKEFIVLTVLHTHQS

FRMPD4, Q14CM0 = biological target: FRMPD4, Q14CM0
Sequence of FRMPD4, Q14CM0 (Q14CM0 67-160): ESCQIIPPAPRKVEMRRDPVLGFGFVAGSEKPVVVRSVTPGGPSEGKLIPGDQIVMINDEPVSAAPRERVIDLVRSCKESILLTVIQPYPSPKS

GOPC, Q9HD26 = biological target: GOPC, Q9HD26
GORASP1, Q9BQQ3 = biological target: GORASP1, Q9BQQ3
Sequence of GORASP1, Q9BQQ3 (Q9BQQ3 1-208): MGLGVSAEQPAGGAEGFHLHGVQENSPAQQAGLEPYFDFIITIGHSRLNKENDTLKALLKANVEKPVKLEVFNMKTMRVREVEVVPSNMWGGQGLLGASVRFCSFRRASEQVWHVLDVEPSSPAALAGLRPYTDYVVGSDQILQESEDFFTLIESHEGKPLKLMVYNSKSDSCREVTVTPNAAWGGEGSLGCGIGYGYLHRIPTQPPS

GRASP, Q7Z6J2 = biological target: GRASP, Q7Z6J2
Sequence of GRASP, Q7Z6J2 (Q7Z6J2 96-193): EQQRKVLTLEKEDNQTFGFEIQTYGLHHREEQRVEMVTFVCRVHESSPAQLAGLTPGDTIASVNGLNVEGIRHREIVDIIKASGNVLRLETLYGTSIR

GRIP2_4, Q9C0E4 = biological target: GRIP2_4, Q9C0E4
Sequence of GRIP2_4, Q9C0E4 (Q9C0E4 446-548): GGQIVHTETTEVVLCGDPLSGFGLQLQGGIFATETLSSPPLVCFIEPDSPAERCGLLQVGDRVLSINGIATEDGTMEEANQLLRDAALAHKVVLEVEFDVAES

GRIP2_7, Q9C0E4 = biological target: GRIP2_7, Q9C0E4
Sequence of GRIP2_7, Q9C0E4 (Q9C0E4 934-1023): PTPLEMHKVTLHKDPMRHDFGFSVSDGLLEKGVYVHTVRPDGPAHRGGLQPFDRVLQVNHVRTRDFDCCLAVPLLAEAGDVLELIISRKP

HTRA1, Q92743 = biological target: HTRA1, Q92743
Sequence of HTRA1, Q92743 (Q92743 360-477): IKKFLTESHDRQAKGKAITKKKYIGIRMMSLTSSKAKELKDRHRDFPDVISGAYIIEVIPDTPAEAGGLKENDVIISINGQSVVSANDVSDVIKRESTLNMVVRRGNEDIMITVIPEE

HTRA4, P83105 = biological target: T3, HTRA4, P83105
T3 sequence (P83105 378-476, limits assumed, looked up): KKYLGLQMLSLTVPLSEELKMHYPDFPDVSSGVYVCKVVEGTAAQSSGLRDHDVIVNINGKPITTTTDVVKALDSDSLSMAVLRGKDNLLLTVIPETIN

IL16_3, Q14005 = biological target: IL16_3, Q14005
Sequence of IL16_3, Q14005 (Q14005 1107-1207): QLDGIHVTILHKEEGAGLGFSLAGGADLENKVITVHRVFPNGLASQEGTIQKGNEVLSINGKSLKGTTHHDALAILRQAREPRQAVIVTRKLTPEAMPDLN

IL16_4, Q14005 = biological target: IL16_4, Q14005
Sequence of IL16_4, Q14005 (Q14005 1229-1329): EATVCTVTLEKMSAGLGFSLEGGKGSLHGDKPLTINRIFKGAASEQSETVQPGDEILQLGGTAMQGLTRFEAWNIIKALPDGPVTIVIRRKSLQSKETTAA

Inadl_4, Q8NI35 = biological target: Inadl_4, Q8NI35
Sequence of Inadl_4, Q8NI35 (Q8NI35 547-651): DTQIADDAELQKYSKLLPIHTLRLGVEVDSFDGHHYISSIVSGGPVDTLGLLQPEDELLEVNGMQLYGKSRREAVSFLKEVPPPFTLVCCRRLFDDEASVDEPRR

Inadl_5, Q8NI35 = biological target: Inadl_5, Q8NI35
Sequence of Inadl_5, Q8NI35 (Q8NI35 673-780): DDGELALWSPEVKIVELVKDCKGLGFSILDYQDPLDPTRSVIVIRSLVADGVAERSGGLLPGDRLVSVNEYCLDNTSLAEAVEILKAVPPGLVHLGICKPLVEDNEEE

Inadl_8, Q8NI35 = biological target: Inadl_8, Q8NI35
Sequence of Inadl_8, Q8NI35 (Q8NI35 1425-1530): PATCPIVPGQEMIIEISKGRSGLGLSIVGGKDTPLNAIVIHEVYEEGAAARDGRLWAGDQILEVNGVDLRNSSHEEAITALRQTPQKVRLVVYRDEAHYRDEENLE

LAP2, Q96RT1 = biological target: LAP2, Q96RT1
Sequence of LAP2, Q96RT1 (Q96RT1 other isoform, or with tags, fused parts or gaps): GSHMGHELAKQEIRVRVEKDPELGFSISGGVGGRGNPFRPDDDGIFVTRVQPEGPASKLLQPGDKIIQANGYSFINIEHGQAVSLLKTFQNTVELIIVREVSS

LDB3, O75112 = biological target: LDB3, O75112
Sequence of LDB3, O75112 (O75112 1-94): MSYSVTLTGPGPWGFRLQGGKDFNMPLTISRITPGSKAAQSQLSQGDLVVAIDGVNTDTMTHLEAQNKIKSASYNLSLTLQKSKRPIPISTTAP

LIN7C, Q9NUP9 = biological target: T4, LIN7C, Q9NUP9
T4 sequence (Q9NUP9 88-185, limits assumed, looked up): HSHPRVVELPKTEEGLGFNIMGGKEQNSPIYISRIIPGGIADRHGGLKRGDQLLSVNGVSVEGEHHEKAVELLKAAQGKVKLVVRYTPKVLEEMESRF

LNX1_1, Q8TBB1 = biological target: LNX1_1, Q8TBB1
Sequence of LNX1_1, Q8TBB1 (Q8TBB1 261-371): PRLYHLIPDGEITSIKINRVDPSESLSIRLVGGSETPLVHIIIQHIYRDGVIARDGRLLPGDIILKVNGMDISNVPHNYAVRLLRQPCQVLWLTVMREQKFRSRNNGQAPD

LNX2_2, Q8N448 = biological target: T5, LNX2_2, Q8N448
T5 sequence (Q8N448 334-432, limits assumed, looked up): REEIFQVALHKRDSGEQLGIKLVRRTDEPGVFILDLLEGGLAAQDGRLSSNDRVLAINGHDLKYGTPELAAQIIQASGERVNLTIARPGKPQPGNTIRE

MAGI1_1, Q96QZ7 = biological target: MAGI1_1, Q96QZ7
Sequence of MAGI1_1, Q96QZ7 (Q96QZ7 1-106): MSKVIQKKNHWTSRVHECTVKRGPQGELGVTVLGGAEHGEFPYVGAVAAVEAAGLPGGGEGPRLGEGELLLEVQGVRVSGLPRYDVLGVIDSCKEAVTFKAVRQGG

MAGI2_2, Q86UL8 = biological target: MAGI2_2, Q86UL8
Sequence of MAGI2_2, Q86UL8 (Q86UL8 410-522): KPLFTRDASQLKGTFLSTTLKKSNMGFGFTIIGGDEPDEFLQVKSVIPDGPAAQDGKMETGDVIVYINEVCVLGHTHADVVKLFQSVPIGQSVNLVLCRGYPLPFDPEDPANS

MAGI2_3, Q86UL8 = biological target: MAGI2_3, Q86UL8
Sequence of MAGI2_3, Q86UL8 (Q86UL8 600-682): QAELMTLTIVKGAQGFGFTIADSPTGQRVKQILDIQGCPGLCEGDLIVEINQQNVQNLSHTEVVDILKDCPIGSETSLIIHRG

MAGI2_5, Q86UL8 = biological target: MAGI2_5, Q86UL8
Sequence of MAGI2_5, Q86UL8 (Q86UL8 915-1017): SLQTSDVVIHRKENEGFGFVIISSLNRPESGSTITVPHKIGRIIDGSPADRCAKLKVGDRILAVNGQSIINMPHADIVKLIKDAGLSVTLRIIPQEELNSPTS

PDLIM1, O00151 = biological target: PDLIM1, O00151
Sequence of PDLIM1, O00151 (O00151 1-87): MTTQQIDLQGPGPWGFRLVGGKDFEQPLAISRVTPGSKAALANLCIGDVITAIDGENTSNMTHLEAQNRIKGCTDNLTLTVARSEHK

PDZRN3_1, Q9UPQ7 = biological target: T6, PDZRN3_1, Q9UPQ7
T6 sequence (Q9UPQ7 244-349, limits assumed, looked up): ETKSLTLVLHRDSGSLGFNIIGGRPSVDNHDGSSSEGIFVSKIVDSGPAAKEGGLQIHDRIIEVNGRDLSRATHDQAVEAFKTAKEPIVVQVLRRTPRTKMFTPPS

TJP1_2, Q07157 = biological target: TJP1_2, Q07157
Sequence of TJP1_2, Q07157 (Q07157 181-274): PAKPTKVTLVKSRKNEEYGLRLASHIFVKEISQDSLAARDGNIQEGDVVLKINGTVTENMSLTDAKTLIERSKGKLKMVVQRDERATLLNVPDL

QYPGSPDSWV [PKP4, Q99569] was tested, and the pKd (APBA2_2, Q99767) was “below the threshold”, the pKd (ARHGAP21, Q5T5U3) was 3.56 and the pKd (DLG1_2, Q12959) was 4.68. For the same binder, the pKd (DLG2_3, Q15700) was “below the threshold”, the pKd (DLG4_1, P78352) was 4.26 and the pKd (DLG4_2, P78352) was 4.62. The pKd (DLG4_3, P78352) was “below the threshold”, the pKd (FRMPD3, Q5JV73) was 3.47 and the pKd (FRMPD4, Q14CM0) was 3.53. For the same binder, the pKd (GOPC, Q9HD26) was “below the threshold”, the pKd (GORASP1, Q9BQQ3) was 3.79 and the pKd (GRASP, Q7Z6J2) was 3.52. For the same binder, the pKd (GRIP2_4, Q9C0E4) was “below the threshold”, the pKd (GRIP2_7, Q9C0E4) was 3.96 and the pKd (HTRA1, Q92743) was 4.78. The pKd (HTRA4, P83105) was 3.48, the pKd (IL16_3, Q14005) was 3.55 and the pKd (IL16_4, Q14005) was “below the threshold”. The pKd (Inadl_4, Q8NI35) was “below the threshold”, the pKd (Inadl_5, Q8NI35) was 3.87 and the pKd (Inadl_8, Q8NI35) was 4.16. It also gave a pKd (LAP2, Q96RT1) of 5.5, a pKd (LDB3, O75112) of 3.82 and a pKd (LIN7C, Q9NUP9) of 3.94. For the same binder, the pKd (LNX1_1, Q8TBB1) was 3.98, the pKd (LNX2_2, Q8N448) was 4.69 and the pKd (MAGI1_1, Q96QZ7) was “below the threshold”. For the same binder, the pKd (MAGI2_2, Q86UL8) was “below the threshold”, the pKd (MAGI2_3, Q86UL8) was “below the threshold” and the pKd (MAGI2_5, Q86UL8) was “below the threshold”. It also gave a pKd (PDLIM1, O00151) of 4.14, a pKd (PDZRN3_1, Q9UPQ7) of 3.77 and a pKd (TJP1_2, Q07157) of 3.76.

With LGHTPFVDEL [UQCRC2, P22695] the pKd (APBA2_2, Q99767) was “below the threshold”, the pKd (ARHGAP21, Q5T5U3) was 3.91 and the pKd (DLG1_2, Q12959) was “below the threshold”. The pKd (DLG2_3, Q15700) was “below the threshold”, the pKd (DLG4_1, P78352) was “below the threshold” and the pKd (DLG4_2, P78352) was “below the threshold”. The pKd (DLG4_3, P78352) was “below the threshold”, the pKd (FRMPD3, Q5JV73) was “below the threshold” and the pKd (FRMPD4, Q14CM0) was 3.77. The pKd (GOPC, Q9HD26) was “below the threshold”, the pKd (GORASP1, Q9BQQ3) was “below the threshold” and the pKd (GRASP, Q7Z6J2) was 3.85. The pKd (GRIP2_4, Q9C0E4) was “below the threshold”, the pKd (GRIP2_7, Q9C0E4) was “below the threshold” and the pKd (HTRA1, Q92743) was 3.97. For the same binder, the pKd (HTRA4, P83105) was 3.98, the pKd (IL16_3, Q14005) was “below the threshold” and the pKd (IL16_4, Q14005) was 3.59. The pKd (Inadl_4, Q8NI35) was “below the threshold”, the pKd (Inadl_5, Q8NI35) was “below the threshold” and the pKd (Inadl_8, Q8NI35) was “below the threshold”. For the same binder, the pKd (LAP2, Q96RT1) was “below the threshold”, the pKd (LDB3, O75112) was “below the threshold” and the pKd (LIN7C, Q9NUP9) was “below the threshold”. For the same binder, the pKd (LNX1_1, Q8TBB1) was “below the threshold”, the pKd (LNX2_2, Q8N448) was “below the threshold” and the pKd (MAGI1_1, Q96QZ7) was “below the threshold”. For the same binder, the pKd (MAGI2_2, Q86UL8) was “below the threshold”, the pKd (MAGI2_3, Q86UL8) was “below the threshold” and the pKd (MAGI2_5, Q86UL8) was 3.47. For the same binder, the pKd (PDLIM1, O00151) was “below the threshold”, the pKd (PDZRN3_1, Q9UPQ7) was “below the threshold” and the pKd (TJP1_2, Q07157) was “below the threshold”.

YPKQMPLSQV [FZD8, Q9H461] was tested, and the pKd (APBA2_2, Q99767) was “below the threshold”, the pKd (ARHGAP21, Q5T5U3) was 3.94 and the pKd (DLG1_2, Q12959) was “below the threshold”. For the same binder, the pKd (DLG2_3, Q15700) was “below the threshold”, the pKd (DLG4_1, P78352) was 3.69 and the pKd (DLG4_2, P78352) was “below the threshold”. For the same binder, the pKd (DLG4_3, P78352) was “below the threshold”, the pKd (FRMPD3, Q5JV73) was “below the threshold” and the pKd (FRMPD4, Q14CM0) was “below the threshold”. The pKd (GOPC, Q9HD26) was 4.52, the pKd (GORASP1, Q9BQQ3) was “below the threshold” and the pKd (GRASP, Q7Z6J2) was “below the threshold”. For the same binder, the pKd (GRIP2_4, Q9C0E4) was “below the threshold”, the pKd (GRIP2_7, Q9C0E4) was “below the threshold” and the pKd (HTRA1, Q92743) was “below the threshold”. For the same binder, the pKd (HTRA4, P83105) was 3.94, the pKd (IL16_3, Q14005) was “below the threshold” and the pKd (IL16_4, Q14005) was “below the threshold”. For the same binder, the pKd (Inadl_4, Q8NI35) was “below the threshold”, the pKd (Inadl_5, Q8NI35) was “below the threshold” and the pKd (Inadl_8, Q8NI35) was 4.61. The pKd (LAP2, Q96RT1) was “below the threshold”, the pKd (LDB3, O75112) was “below the threshold” and the pKd (LIN7C, Q9NUP9) was “below the threshold”. The pKd (LNX1_1, Q8TBB1) was 3.74, the pKd (LNX2_2, Q8N448) was “below the threshold” and the pKd (MAGI1_1, Q96QZ7) was “below the threshold”. For the same binder, the pKd (MAGI2_2, Q86UL8) was 4.29, the pKd (MAGI2_3, Q86UL8) was “below the threshold” and the pKd (MAGI2_5, Q86UL8) was “below the threshold”. The pKd (PDLIM1, O00151) was “below the threshold”, the pKd (PDZRN3_1, Q9UPQ7) was “below the threshold” and the pKd (TJP1_2, Q07157) was “below the threshold”.

With GDGLDDEIAV [NOS1AP, O75052] the pKd (APBA2_2, Q99767) was “below the threshold”, the pKd (ARHGAP21, Q5T5U3) was 4.51 and the pKd (DLG1_2, Q12959) was “below the threshold”. The pKd (DLG2_3, Q15700) was “below the threshold”, the pKd (DLG4_1, P78352) was “below the threshold” and the pKd (DLG4_2, P78352) was “below the threshold”. The pKd (DLG4_3, P78352) was “below the threshold”, the pKd (FRMPD3, Q5JV73) was 4.16 and the pKd (FRMPD4, Q14CM0) was 4.43. The pKd (GOPC, Q9HD26) was “below the threshold”, the pKd (GORASP1, Q9BQQ3) was “below the threshold” and the pKd (GRASP, Q7Z6J2) was “below the threshold”. For the same binder, the pKd (GRIP2_4, Q9C0E4) was “below the threshold”, the pKd (GRIP2_7, Q9C0E4) was “below the threshold” and the pKd (HTRA1, Q92743) was 4.68. The pKd (HTRA4, P83105) was 3.9, the pKd (IL16_3, Q14005) was “below the threshold” and the pKd (IL16_4, Q14005) was “below the threshold”. For the same binder, the pKd (Inadl_4, Q8NI35) was “below the threshold”, the pKd (Inadl_5, Q8NI35) was “below the threshold” and the pKd (Inadl_8, Q8NI35) was “below the threshold”. For the same binder, the pKd (LAP2, Q96RT1) was 3.67, the pKd (LDB3, O75112) was “below the threshold” and the pKd (LIN7C, Q9NUP9) was “below the threshold”. The pKd (LNX1_1, Q8TBB1) was “below the threshold”, the pKd (LNX2_2, Q8N448) was 4.37 and the pKd (MAGI1_1, Q96QZ7) was “below the threshold”. For the same binder, the pKd (MAGI2_2, Q86UL8) was “below the threshold”, the pKd (MAGI2_3, Q86UL8) was “below the threshold” and the pKd (MAGI2_5, Q86UL8) was “below the threshold”. For the same binder, the pKd (PDLIM1, O00151) was “below the threshold”, the pKd (PDZRN3_1, Q9UPQ7) was “below the threshold” and the pKd (TJP1_2, Q07157) was “below the threshold”.

— article PMC9482650, “Quantitative fragmentomics allow affinity mapping of interactomes” (Nature Communications, 2022)
